Measurements reported in patent publication US20260000597A1 (priority 2018, published 2026).

These substances were tested against AchR (Homo sapiens, UniProt P02708) (assay: ELISA of screened peptide phages on AchR versus streptavidin (OD450)). Conditions: ELISA of selected 11-mer (L2) peptide phages on AchR, absorbance at 450 nm; Spep-2 positive control.
Format: binding
Experimental: The output phages for the 4th and 5th rounds of biopanning in Example 13-1 were inoculated to E. coli, and plated on the agar plates so as to form 100-200 plaques per plate. The plaques were inoculated on 1 ml of an SB liquid medium containing 50 μg/ml of ampicillin by using a sterile tip, and cultured with shaking at 37° C. for 5 hours, followed by the addition of 30 μl of helper phages, and then cultured at 37° C. and 200 rpm for one day. The culture was centrifuged at 12,000 rpm for 2 minutes to collect supernatant, and 2% BSA was added to the supernatant, and used for phage screening.
In a 96-well ELISA plate, 5 μg/ml AchR or streptavidin was added at 50 μl per well, and left at 4° C. overnight. The next day, the solution in each well was discarded, followed by the addition of 2% BSA, and then blocked at room temperature for 2 hours. After the solution was all discarded, the wells were washed three times with Tris (20 mM, pH7). In addition, 100 μl of each of the phage solutions obtained from the above-prepared plaques was dispensed into wells and left at 30° C. for 1 hour. After the solution in the wells was all discarded, the wells were washed three times with Tris (20 mM, pH 7), and then the HRP-conjugated anti-M13 antibody diluted 1:2,000 was added at 100 μl per well, followed by culture at 30° C. for 1 hour. After the wells were washed three times with Tris (20 mM, pH7), 100 μl of tetramethylbenzidine was added to each well to induce a color development reaction, and then the reaction was stopped by the addition of 100 μl of 1M H2SO4, and the absorbance at 450 nm (OD450) was measured. The measured absorbance was converted into a ratio of AchR absorbance to streptavidin absorbance (AchR signal/streptavidin signal), and the results are shown in FIGS. 14 to 16.

Sequence of AchR (P02708 21-457): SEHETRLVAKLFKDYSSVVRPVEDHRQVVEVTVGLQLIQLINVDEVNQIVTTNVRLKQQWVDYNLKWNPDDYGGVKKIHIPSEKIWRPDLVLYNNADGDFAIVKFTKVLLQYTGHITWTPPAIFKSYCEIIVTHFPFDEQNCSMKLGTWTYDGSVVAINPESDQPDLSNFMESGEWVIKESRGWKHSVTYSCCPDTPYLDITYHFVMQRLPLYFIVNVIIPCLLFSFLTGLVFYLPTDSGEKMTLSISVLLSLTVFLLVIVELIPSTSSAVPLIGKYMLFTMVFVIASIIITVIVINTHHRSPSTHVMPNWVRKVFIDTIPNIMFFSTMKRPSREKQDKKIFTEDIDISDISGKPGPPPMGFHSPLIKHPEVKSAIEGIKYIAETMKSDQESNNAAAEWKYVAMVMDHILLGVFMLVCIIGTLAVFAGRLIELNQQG

Q: With “L2-143 (AIIKFRKVQWK; AchR binding peptide) [Peptide L2-143]” as the substance, how does the OD read?
A: 0.401

Q: Which OD does the source give for “L2-25 (RLERPRRELTK; AchR binding peptide) [Peptide L2-25]” here?
A: 0.842

Q: “L2-180 (DPEKWRKFYDR; AchR binding peptide) [Peptide L2-180]” was tested. Which OD did it give?
A: 0.744

Q: For “L2-121 (HETKPKKDGLR; AchR binding peptide) [Peptide L2-121]”, which OD is on record?
A: 0.492

Q: With “L2-22 (MMMRHKRCQYR; AchR binding peptide) [Peptide L2-22]” as the substance, how does the OD read?
A: 0.75

Q: With “L2-102 (YTSRCKKQPRK; AchR binding peptide) [Peptide L2-102]” as the substance, how does the OD read?
A: 0.608

Q: “L2-30 (PTLKWRKPVLR; AchR binding peptide) [Peptide L2-30]” was tested. Which OD did it give?
A: 0.746

Q: Which OD does the source give for “L2-139 (SVLRCRKCSMK; AchR binding peptide) [Peptide L2-139]” here?
A: 0.528

Q: Which OD does the source give for “L2-200 (QGMKLKRIWSK; AchR binding peptide) [Peptide L2-200]” here?
A: 0.744

Q: For “L2-112 (CFFKMRRCNTK; AchR binding peptide) [Peptide L2-112]”, which OD is on record?
A: 0.646

Q: How did the OD turn out when “L2-82 (PDTRWKRVLFK; AchR binding peptide) [Peptide L2-82]” was run?
A: 0.693

Q: Which OD does the source give for “L2-95 (IMDKRRKPGCR; AchR binding peptide) [Peptide L2-95]” here?
A: 0.522

Q: How did the OD turn out when “L2-108 (QQDRPKRDIPK; AchR binding peptide) [Peptide L2-108]” was run?
A: 0.716

Q: “L2-12 (AYAKARRWGQK; AchR binding peptide) [Peptide L2-12]” was tested. Which OD did it give?
A: 0.83

Q: How did the OD turn out when “L2-99 (CSLRARKEEWR; AchR binding peptide) [Peptide L2-99]” was run?
A: 0.52

Q: How did the OD turn out when “L2-199 (EICKNRKPANR; AchR binding peptide) [Peptide L2-199]” was run?
A: 0.716

Q: Which OD does the source give for “L2-136 (YTSKNKRGCPR; AchR binding peptide) [Peptide L2-136]” here?
A: 0.454

Q: Which OD does the source give for “L2-129 (TCIKYRRAHTK; AchR binding peptide) [Peptide L2-129]” here?
A: 0.603

Q: With “L2-123 (HDTKCKKMYAK; AchR binding peptide) [Peptide L2-123]” as the substance, how does the OD read?
A: 0.473

Q: For “L2-171 (YGTRPKKYVSK; AchR binding peptide) [Peptide L2-171]”, which OD is on record?
A: 0.689

Q: “L2-87 (EWHKVRRVYAK; AchR binding peptide) [Peptide L2-87]” was tested. Which OD did it give?
A: 0.716

Q: “L2-147 (TWCKHKKLDMK; AchR binding peptide) [Peptide L2-147]” was tested. Which OD did it give?
A: 0.641

Q: For “L2-175 (CVMRCRRSEDK; AchR binding peptide) [Peptide L2-175]”, which OD is on record?
A: 0.65

Q: How did the OD turn out when “L2-145 (MNEKPKKNDQK; AchR binding peptide) [Peptide L2-145]” was run?
A: 0.468

Q: How did the OD turn out when “L2-117 (DNGKIRRCLGK; AchR binding peptide) [Peptide L2-117]” was run?
A: 0.607

Q: For “L2-88 (NAMRTKRMSFK; AchR binding peptide) [Peptide L2-88]”, which OD is on record?
A: 0.744

Q: “L2-185 (FITRFRKMGEK; AchR binding peptide) [Peptide L2-185]” was tested. Which OD did it give?
A: 0.742

Same assay, conditions: ELISA of selected 14-mer (L3) peptide phages on AchR, absorbance at 450 nm; Spep-2 positive control

Q: Which OD does the source give for “L3-61 (THDKCKKHNDKQAH; AchR binding peptide) [Peptide L3-61]” here?
A: 0.768

Q: Which OD does the source give for “L3-125 (MQEKCRRCVFKGNI; AchR binding peptide) [Peptide L3-125]” here?
A: 0.629

Q: With “L3-80 (MEGREKKSYNKGEN; AchR binding peptide) [Peptide L3-80]” as the substance, how does the OD read?
A: 0.589

Q: With “L3-46 (SAHKKRKQTLRCSE; AchR binding peptide) [Peptide L3-46]” as the substance, how does the OD read?
A: 0.618

Q: Which OD does the source give for “L3-95 (SISRLRKAHQKFIP; AchR binding peptide) [Peptide L3-95]” here?
A: 0.657

Q: Which OD does the source give for “L3-68 (YSSKSRKLSPRTPR; AchR binding peptide) [Peptide L3-68]” here?
A: 0.792

Q: “L3-43 (FTHKNRRDSLRVWM; AchR binding peptide) [Peptide L3-43]” was tested. Which OD did it give?
A: 0.93

Q: How did the OD turn out when “L3-170 (CIFKFKKNMFKGYS; AchR binding peptide) [Peptide L3-170]” was run?
A: 0.768

Q: For “L3-129 (IHPRYKRHQARSCC; AchR binding peptide) [Peptide L3-129]”, which OD is on record?
A: 0.606

Q: “L3-81 (PTWRHRRYCAKDIG; AchR binding peptide) [Peptide L3-81]” was tested. Which OD did it give?
A: 0.775

Q: “L3-17 (VGPKFRKNHRRQNR; AchR binding peptide) [Peptide L3-17]” was tested. Which OD did it give?
A: 0.812

Q: For “L3-152 (VVIKCRKWTHKMDH; AchR binding peptide) [Peptide L3-152]”, which OD is on record?
A: 0.818

Q: Which OD does the source give for “L3-142 (LQCKYRRGSDKTVV; AchR binding peptide) [Peptide L3-142]” here?
A: 0.502

Q: Which OD does the source give for “L3-22 (HSLKTRKSAFKSNT; AchR binding peptide) [Peptide L3-22]” here?
A: 0.83

Q: “L3-144 (CSYKLRRCDMRLWG; AchR binding peptide) [Peptide L3-144]” was tested. Which OD did it give?
A: 0.578

Q: For “L3-91 (CWCRQRKCFHKPWI; AchR binding peptide) [Peptide L3-91]”, which OD is on record?
A: 0.749

Q: How did the OD turn out when “L3-132 (TITRVKRASHKTPS; AchR binding peptide) [Peptide L3-132]” was run?
A: 0.619

Q: How did the OD turn out when “L3-4 (MPQKLKKLDIRNHN; AchR binding peptide) [Peptide L3-4]” was run?
A: 0.905

Q: For “L3-115 (NDPRLRKHNHRCCT; AchR binding peptide) [Peptide L3-115]”, which OD is on record?
A: 0.685

Q: How did the OD turn out when “L3-122 (MHPRPRKMSHKMSC; AchR binding peptide) [Peptide L3-122]” was run?
A: 0.691

Q: With “L3-196 (IEMRYRRDCSRFVN; AchR binding peptide) [Peptide L3-196]” as the substance, how does the OD read?
A: 0.746

Q: How did the OD turn out when “L3-35 (LQCKYRRGSDKQPQ; AchR binding peptide) [Peptide L3-35]” was run?
A: 0.747

Q: “L3-160 (LTSRCKKTFQKNSE; AchR binding peptide) [Peptide L3-160]” was tested. Which OD did it give?
A: 0.792

Q: For “L3-51 (NHHKTKRCSVRFNI; AchR binding peptide) [Peptide L3-51]”, which OD is on record?
A: 0.754

Q: For “L3-41 (GWLKAKRFPSRPPT; AchR binding peptide) [Peptide L3-41]”, which OD is on record?
A: 0.81

Q: For “L3-33 (LRQRSKRVLEKLRP; AchR binding peptide) [Peptide L3-33]”, which OD is on record?
A: 0.751

Q: For “L3-164 (QINRVKKSDAKFCT; AchR binding peptide) [Peptide L3-164]”, which OD is on record?
A: 0.746

Q: For “L3-141 (FFYRLRRCLTRWWV; AchR binding peptide) [Peptide L3-141]”, which OD is on record?
A: 0.504

Q: “L3-151 (HTLKPKRLYPRPSE; AchR binding peptide) [Peptide L3-151]” was tested. Which OD did it give?
A: 0.624

Q: For “L3-166 (EYVKAKRTPWKYVV; AchR binding peptide) [Peptide L3-166]”, which OD is on record?
A: 0.629

Q: For “L3-123 (PGERLKKEDHRASG; AchR binding peptide) [Peptide L3-123]”, which OD is on record?
A: 0.654

Q: Which OD does the source give for “L3-30 (WAHKCKKPGQRIPP; AchR binding peptide) [Peptide L3-30]” here?
A: 0.771

Same assay, conditions: phage ELISA, absorbance at 450 nm, 5 μg/ml AchR; 4th and 5th round biopanning phages

Q: How did the OD turn out when RHRKYVDK [Peptide L1-152] was run?
A: 0.484

Q: With KNKRTPVK [Peptide L1-86] as the substance, how does the OD read?
A: 0.551

Q: RQRRMTPR [Peptide L1-156] was tested. Which OD did it give?
A: 0.589

Q: Which OD does the source give for KMRRVAPR [Peptide L1-176] here?
A: 0.479

Q: How did the OD turn out when KTKKAAER [Peptide L1-178] was run?
A: 0.625

Q: With RIRRGSVR [Peptide L1-57] as the substance, how does the OD read?
A: 0.408

Q: Which OD does the source give for RSKRMNGK [Peptide L1-58] here?
A: 0.472

Q: With RHKKSPWK [Peptide L1-5] as the substance, how does the OD read?
A: 0.657

Q: For KDRKGVYK [Peptide L1-111], which OD is on record?
A: 0.608

Q: How did the OD turn out when KHKRTAQR [Peptide L1-78] was run?
A: 0.642

Q: Which OD does the source give for KRRRFRWK [Peptide L1-40] here?
A: 0.424

Q: How did the OD turn out when KQKRQWAR [Peptide L1-191] was run?
A: 0.649

Q: Which OD does the source give for KCRKTMGR [Peptide L1-123] here?
A: 0.409

Q: With RFRKMIPK [Peptide L1-115] as the substance, how does the OD read?
A: 0.451

Q: For KERKASAK [Peptide L1-63], which OD is on record?
A: 0.618

Q: For KWKRNCTK [Peptide L1-65], which OD is on record?
A: 0.585

Q: With KARKQEVR [Peptide L1-188] as the substance, how does the OD read?
A: 0.618

Q: With KWRREQFR [Peptide L1-76] as the substance, how does the OD read?
A: 0.588

Q: REKKYAYK [Peptide L1-181] was tested. Which OD did it give?
A: 0.589

Q: For KFKRTEGR [Peptide L1-19], which OD is on record?
A: 0.575

Q: How did the OD turn out when KGKRDSNK [Peptide L1-51] was run?
A: 0.66

Q: RLKRAPGR [Peptide L1-33] was tested. Which OD did it give?
A: 0.529

Q: With KLRKQKLR [Peptide L1-43] as the substance, how does the OD read?
A: 0.601

Q: For KRKKDWWR [Peptide L1-10], which OD is on record?
A: 0.621

Q: RWKKNINK [Peptide L1-80] was tested. Which OD did it give?
A: 0.631

Q: With RCKKNPEK [Peptide L1-66] as the substance, how does the OD read?
A: 0.605

Q: For KCKKMTER [Peptide L1-37], which OD is on record?
A: 0.524

Q: KVKRVWGR [Peptide L1-163] was tested. Which OD did it give?
A: 0.618
